Data: the supplement of paper PMC7125110
± gives the standard error. For part of these data: This sample holds only a part of the variants without activity.

B1: glmS ribozyme (parent)
chain: AUAAAAGCGCCAGAACUACAGAAAUGUAGUUGACGAGGAGGAGGUUUAUCGAAUUUUCGGCGGAUGCCUCCAAA

Experiments:
Conditions in all cases: with glucosamine-6-phosphate
glucosamine-6-phosphate [1] = variants of: B1; experiment: kcat; higher = faster cleavage; RNA array
Method in brief: (§1)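 Over ~14 h at 37 °C, tiles were imaged as glucosamine-6-phosphate (40 μM to 10 mM) in HEPES/KCl/Mg(OAc)2 buffer flowed across sequenced MiSeq chips. The chips carried barcoded ribozyme variants transcribed in situ by E. coli RNA polymerase and tracked with a hybridised Cy3 probe. After normalisation to baseline and to non-cleaving reference variants, one- or two-exponential decay fits of per-tile medians gave kobs. kcat and KM followed from weighted Michaelis–Menten fits across concentrations.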

glucosamine-6-phosphate [2] = variants of: B1; experiment: KM; higher = weaker cofactor use; RNA array
Method in brief: as §1

glucosamine-6-phosphate [3] = variants of: B1; experiment: self-cleavage kobs at 40 uM GlcN6P; higher = faster cleavage; RNA array
Method in brief: as §1

glucosamine-6-phosphate [4] = variants of: B1; experiment: self-cleavage kobs at 160 uM GlcN6P; higher = faster cleavage; RNA array
Method in brief: as §1

glucosamine-6-phosphate [5] = variants of: B1; experiment: self-cleavage kobs at 640 uM GlcN6P; higher = faster cleavage; RNA array
Method in brief: as §1

glucosamine-6-phosphate [6] = variants of: B1; experiment: self-cleavage kobs at 2500 uM GlcN6P; higher = faster cleavage; RNA array
Method in brief: as §1

glucosamine-6-phosphate [7] = variants of: B1; experiment: self-cleavage kobs at 10000 uM GlcN6P; higher = faster cleavage; RNA array
Method in brief: as §1

## A12C A15G
glucosamine-6-phosphate [1]
  kcat: 0.016 ± 0.0031 s⁻¹
glucosamine-6-phosphate [2]
  KM: 2400 ± 600 µM
glucosamine-6-phosphate [3]
  self-cleavage kobs at 40 uM GlcN6P: 0.000302 ± 3.5e-05 s⁻¹
glucosamine-6-phosphate [4]
  self-cleavage kobs at 160 uM GlcN6P: 0.000883 ± 0.00014 s⁻¹
glucosamine-6-phosphate [5]
  self-cleavage kobs at 640 uM GlcN6P: 0.00332 ± 0.0006 s⁻¹
glucosamine-6-phosphate [6]
  self-cleavage kobs at 2500 uM GlcN6P: 0.00626 ± 0.0015 s⁻¹
glucosamine-6-phosphate [7]
  self-cleavage kobs at 10000 uM GlcN6P: 0.0142 ± 0.0018 s⁻¹

## A14G A33U
glucosamine-6-phosphate [1]
  kcat: 0.000136 ± 9.7e-06 s⁻¹
glucosamine-6-phosphate [2]
  KM: 8710 ± 1300 µM
glucosamine-6-phosphate [3]
  self-cleavage kobs at 40 uM GlcN6P: < 1e-05 s⁻¹
glucosamine-6-phosphate [6]
  self-cleavage kobs at 2500 uM GlcN6P: 3.08e-05 ± 1e-05 s⁻¹
glucosamine-6-phosphate [7]
  self-cleavage kobs at 10000 uM GlcN6P: 7.29e-05 ± 7e-06 s⁻¹

## G40C A48U
glucosamine-6-phosphate [1]
  kcat: 0.000238 ± 7.3e-05 s⁻¹
glucosamine-6-phosphate [3]
  self-cleavage kobs at 40 uM GlcN6P: < 1e-05 s⁻¹
glucosamine-6-phosphate [4]
  self-cleavage kobs at 160 uM GlcN6P: < 1e-05 s⁻¹
glucosamine-6-phosphate [7]
  self-cleavage kobs at 10000 uM GlcN6P: 5.01e-05 ± 8.4e-06 s⁻¹

## G38U C58U U69G
glucosamine-6-phosphate [1]
  kcat: 0.000168 ± 1.3e-05 s⁻¹
glucosamine-6-phosphate [3]
  self-cleavage kobs at 40 uM GlcN6P: 0.000148 ± 4.2e-05 s⁻¹
glucosamine-6-phosphate [4]
  self-cleavage kobs at 160 uM GlcN6P: 0.000207 ± 5.2e-05 s⁻¹
glucosamine-6-phosphate [5]
  self-cleavage kobs at 640 uM GlcN6P: 0.000157 ± 2.8e-05 s⁻¹
glucosamine-6-phosphate [6]
  self-cleavage kobs at 2500 uM GlcN6P: 0.000189 ± 6.3e-05 s⁻¹
glucosamine-6-phosphate [7]
  self-cleavage kobs at 10000 uM GlcN6P: 0.000156 ± 4.9e-05 s⁻¹

## A39G G44U
glucosamine-6-phosphate [1]
  kcat: 0.00229 ± 0.0007 s⁻¹
glucosamine-6-phosphate [2]
  KM: 6340 ± 3000 µM
glucosamine-6-phosphate [5]
  self-cleavage kobs at 640 uM GlcN6P: 0.000198 ± 5e-05 s⁻¹
glucosamine-6-phosphate [6]
  self-cleavage kobs at 2500 uM GlcN6P: 0.000853 ± 0.00022 s⁻¹
glucosamine-6-phosphate [7]
  self-cleavage kobs at 10000 uM GlcN6P: 0.00136 ± 0.00023 s⁻¹

## A39G C68A
glucosamine-6-phosphate [1]
  kcat: 2.73e-05 ± 9.4e-06 s⁻¹

## C16A U45G
glucosamine-6-phosphate [1]
  kcat: 0.000271 ± 2.9e-06 s⁻¹
glucosamine-6-phosphate [2]
  KM: 2200 ± 54 µM
glucosamine-6-phosphate [5]
  self-cleavage kobs at 640 uM GlcN6P: 6.15e-05 ± 1.2e-05 s⁻¹
glucosamine-6-phosphate [6]
  self-cleavage kobs at 2500 uM GlcN6P: 0.000144 ± 3.4e-05 s⁻¹
glucosamine-6-phosphate [7]
  self-cleavage kobs at 10000 uM GlcN6P: 0.000222 ± 2.7e-05 s⁻¹

## U55C U65G
glucosamine-6-phosphate [1]
  kcat: 0.00367 ± 0.00064 s⁻¹
glucosamine-6-phosphate [2]
  KM: 2540 ± 680 µM
glucosamine-6-phosphate [3]
  self-cleavage kobs at 40 uM GlcN6P: 4.04e-05 ± 1.8e-05 s⁻¹
glucosamine-6-phosphate [4]
  self-cleavage kobs at 160 uM GlcN6P: 0.000212 ± 5.2e-05 s⁻¹
glucosamine-6-phosphate [5]
  self-cleavage kobs at 640 uM GlcN6P: 0.000908 ± 0.00016 s⁻¹
glucosamine-6-phosphate [6]
  self-cleavage kobs at 2500 uM GlcN6P: 0.00177 ± 0.0003 s⁻¹
glucosamine-6-phosphate [7]
  self-cleavage kobs at 10000 uM GlcN6P: 0.00288 ± 0.00054 s⁻¹

## A12G U47G
glucosamine-6-phosphate [1]
  kcat: 0.000821 ± 0.00017 s⁻¹
glucosamine-6-phosphate [2]
  KM: 4640 ± 1600 µM
glucosamine-6-phosphate [4]
  self-cleavage kobs at 160 uM GlcN6P: 1.69e-05 ± 7.8e-06 s⁻¹
glucosamine-6-phosphate [5]
  self-cleavage kobs at 640 uM GlcN6P: 0.000127 ± 1.6e-05 s⁻¹
glucosamine-6-phosphate [6]
  self-cleavage kobs at 2500 uM GlcN6P: 0.000266 ± 2.7e-05 s⁻¹
glucosamine-6-phosphate [7]
  self-cleavage kobs at 10000 uM GlcN6P: 0.000573 ± 4.8e-05 s⁻¹

## A14U U31C
glucosamine-6-phosphate [1]
  kcat: 0.00342 ± 0.00056 s⁻¹
glucosamine-6-phosphate [2]
  KM: 1450 ± 340 µM
glucosamine-6-phosphate [3]
  self-cleavage kobs at 40 uM GlcN6P: 0.00012 ± 1.9e-05 s⁻¹
glucosamine-6-phosphate [4]
  self-cleavage kobs at 160 uM GlcN6P: 0.000327 ± 3.9e-05 s⁻¹
glucosamine-6-phosphate [5]
  self-cleavage kobs at 640 uM GlcN6P: 0.000956 ± 0.00011 s⁻¹
glucosamine-6-phosphate [6]
  self-cleavage kobs at 2500 uM GlcN6P: 0.00229 ± 0.00027 s⁻¹
glucosamine-6-phosphate [7]
  self-cleavage kobs at 10000 uM GlcN6P: 0.00303 ± 0.0006 s⁻¹

## G29A G41C
glucosamine-6-phosphate [1]
  kcat: 3.14e-05 ± 5.6e-06 s⁻¹
glucosamine-6-phosphate [6]
  self-cleavage kobs at 2500 uM GlcN6P: 2.97e-05 ± 1.2e-05 s⁻¹

## C16G U46G
glucosamine-6-phosphate [1]
  kcat: 0.000671 ± 0.00023 s⁻¹
glucosamine-6-phosphate [4]
  self-cleavage kobs at 160 uM GlcN6P: 5.87e-05 ± 2.1e-05 s⁻¹
glucosamine-6-phosphate [5]
  self-cleavage kobs at 640 uM GlcN6P: 0.000167 ± 4e-05 s⁻¹
glucosamine-6-phosphate [6]
  self-cleavage kobs at 2500 uM GlcN6P: 0.000703 ± 0.00022 s⁻¹
glucosamine-6-phosphate [7]
  self-cleavage kobs at 10000 uM GlcN6P: 0.000514 ± 0.00016 s⁻¹

## U30C G66U
glucosamine-6-phosphate [1]
  kcat: < 1e-05 s⁻¹
glucosamine-6-phosphate [4]
  self-cleavage kobs at 160 uM GlcN6P: < 1e-05 s⁻¹

## A6U G7A
glucosamine-6-phosphate [1]
  kcat: < 1e-05 s⁻¹
glucosamine-6-phosphate [4]
  self-cleavage kobs at 160 uM GlcN6P: < 1e-05 s⁻¹
glucosamine-6-phosphate [5]
  self-cleavage kobs at 640 uM GlcN6P: < 1e-05 s⁻¹

## U55G C68G
glucosamine-6-phosphate [1]
  kcat: 9.78e-05 ± 1e-05 s⁻¹
glucosamine-6-phosphate [2]
  KM: 345 ± 170 µM
glucosamine-6-phosphate [5]
  self-cleavage kobs at 640 uM GlcN6P: 6.54e-05 ± 1.3e-05 s⁻¹
glucosamine-6-phosphate [6]
  self-cleavage kobs at 2500 uM GlcN6P: 7.64e-05 ± 1.5e-05 s⁻¹
glucosamine-6-phosphate [7]
  self-cleavage kobs at 10000 uM GlcN6P: 0.000104 ± 1.7e-05 s⁻¹

## C50G C71G
glucosamine-6-phosphate [1]
  kcat: 0.000204 ± 3.9e-05 s⁻¹
glucosamine-6-phosphate [3]
  self-cleavage kobs at 40 uM GlcN6P: 0.000109 ± 9.6e-06 s⁻¹
glucosamine-6-phosphate [4]
  self-cleavage kobs at 160 uM GlcN6P: 0.000249 ± 4.4e-05 s⁻¹
glucosamine-6-phosphate [5]
  self-cleavage kobs at 640 uM GlcN6P: 0.000149 ± 2.4e-05 s⁻¹
glucosamine-6-phosphate [6]
  self-cleavage kobs at 2500 uM GlcN6P: 0.000242 ± 3.1e-05 s⁻¹
